Reference: the RNAGym collection of RNA variant scans (doi:10.1073/pnas.2313332121)
Fewer inactive variants are shown than the library holds.

B1: TPR 5TU (parent)
chain: GGAUCUUCUCGAUCUAACAAAAAAGACAAAUCUGCCACAAAGCUUGAGAGCAUCUUCGGAUGCAGAGGCGGCAGCCUUCGGUGGCGCGAUAGCGCCAACGUUCUCAACUAUGACACGCAAAACGCGUGCUCCGUUGAAUGGAGUUUAUCAUG

Variants of: B1
Assay: polymerase ribozyme fitness, log enrichment relative to wild type (log ratio); higher = more active; in vitro selection for triplet polymerase activity
Outline: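 Mutant libraries for each subunit of a heterodimeric triplet polymerase ribozyme were made by PCR and then transcribed. Each library underwent one round of in vitro selection in triplicate: annealing with a biotinylated primer, the partner subunit and triplets, frozen incubation at −7 °C, gel excision of extended constructs, streptavidin-bead capture and RT-PCR. Input and output libraries were Illumina-sequenced, and only genotypes with ≥10 input reads and ≥1 read per output were kept. Fitness is the logarithm, base 2, of genotype enrichment over wild-type enrichment, computed from inverse-variance-weighted replicate averages.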

Row | Variant | polymerase ribozyme fitness (log ratio)
1 | C32A C96U | -4.11
2 | C32U G71C C103G A113G A121G U134C | ≤ -4.2
3 | C32A C69G A98U | -1.51
4 | C32G A41U A91U A107G C125G U135C | ≤ -4.2
5 | C32U C85U | -1.97
6 | U33A G92A | ≤ -4.2
7 | U31G G62C G88C A119G | ≤ -4.2
8 | U31C U53G | -0.735
9 | C32A U33G A66G G83A U102G C118G G124C G141C G143U | ≤ -4.2
10 | C32U C103U | -2.66
11 | U33G A73G | -0.513
12 | U31G A41C C75U C85G G88C A137U | ≤ -4.2
13 | U31G U53G G70U A89U C93U C114A C123G U135C G152U | ≤ -4.2
14 | C32U C118U G133C | -2.99
15 | C32A C87U | -3.44
16 | U33C C87G G152A | ≤ -4.2
17 | U31G G59A G92U | -0.919
18 | U33A A41C U53C C57U G65A A66C G67C G80C | ≤ -4.2
19 | C32G C36U A64U C96U A107C G117U U134C A150C | ≤ -4.2
20 | C32U U33A U151A | -4.18
21 | C32G C57U C95U A142C U144G | ≤ -4.2
22 | U33C A39C G88A C118G C123A | ≤ -4.2
23 | U33A C96A | ≤ -4.2
24 | C32U A37C G68A G80A C87U C95G | ≤ -4.2

Row | Variant | polymerase ribozyme fitness (log ratio)
25 | C32U C93A | -4.11
26 | U33A C75G C76A A142G | ≤ -4.2
27 | C32G C35A | -3.92
28 | C32G G92A U111G | -4.13
29 | C32G G70C | ≤ -4.2
30 | C32U A40U U56C C85U U90A C114U | -4.06
31 | C32A G50A A137G | ≤ -4.2
32 | C32A C35U C69A C75U A150G | ≤ -4.2
33 | C32G A91C U139G | ≤ -4.2
34 | U33G C35G A60G A107G | ≤ -4.2
35 | U33G A60G | -2.79
36 | C32A U55A C76U A89G G92U A119G | ≤ -4.2
37 | U33C C95U | -2.01
38 | U33C C85A | -3.61
39 | U33A G74A | ≤ -4.2
40 | U31G C54A C95A A142U | -3.34
41 | U33G G50A A52C C76U C79U A107G U151A | ≤ -4.2
42 | C32U G46A A60U G83C C96A G141A | ≤ -4.2
43 | U33G G59A G94U | -3.39
44 | C32G A37C C85G | ≤ -4.2
45 | U33C G68A | -3.97
46 | U33C C54A G83C C108G U146A C149A | ≤ -4.2
47 | C32G G59C G71C C85A G88A U151A | ≤ -4.2
48 | C32G C38G C93G G133U | -3.72

Row | Variant | polymerase ribozyme fitness (log ratio)
49 | U33G A47C A52C U53A A73U C87G | ≤ -4.2
50 | U31G G83U G126C | -0.857
51 | C32G C93U A119U A147U | ≤ -4.2
52 | U33A A40C A41U C93G | -3.86
53 | C32G G48C U53C U82G | ≤ -4.2
54 | C32A U61G U82A G92U C99G | ≤ -4.2
55 | U31G G58A C85A C114G A115U | -4.05
56 | U33C A52G G70A G92A A150G | -3.87
57 | U33G G67U C85G C96G A122G G140A | ≤ -4.2
58 | U33G G62U C69U C103A G126C | ≤ -4.2
59 | C32A C87A C93U | ≤ -4.2
60 | C32G A37G C38U U56A A119C | ≤ -4.2
61 | C32G G48U G68A U134A U145C | ≤ -4.2
62 | C32G A52C U61A G62C C63A C75U C93U | -4.14
63 | C32A U45G G46A C99G C103G U127C U148G | ≤ -4.2
64 | U31G C95G C105G | ≤ -4.2
65 | U33G C116U | -2.7
66 | C32G U55A | -3.78
67 | U33A A39G U90A U130A | ≤ -4.2
68 | C32A G84U A97G C131U U139C | ≤ -4.2
69 | C32U U33G C38U C54U U77A A107U | -3.74
70 | C32U A49C G92U C99A A115G A147C | ≤ -4.2
71 | U31G U53A C95U U135G | -3.6
72 | C32U C38U C69A U78A C99G U101A U127C | ≤ -4.2

Row | Variant | polymerase ribozyme fitness (log ratio)
73 | U33A G86A A142G | ≤ -4.2
74 | C32A G58C A64U C85G | ≤ -4.2
75 | U31G U56G C93G C96G G133C | ≤ -4.2
76 | U31G U55A A142U | -1.54
77 | C32G G92U U127G G152U | -3.98
78 | U31C U55A U101C | 0.401
79 | C32U G62A C76G G84U C116U G140A C149U | ≤ -4.2
80 | U31G G50A C87A U135A | ≤ -4.2
81 | U33G G46C G71A U78G U90G A110C U127C G141C | ≤ -4.2
82 | U33C A39U G62A G86A A107U | ≤ -4.2
83 | U33C C54U C96U A107C | ≤ -4.2
84 | U31G C125U U130A | ≤ -4.2
85 | U33A U56A C75G G81U G83A U127A | ≤ -4.2
86 | C32U A41C G58U A60C C75G C96U C114A | ≤ -4.2
87 | C32A A41C C51U G58A C69U C93U C108U | ≤ -4.2
88 | U33A C95U | -4.12
89 | U31G U148C | -2.37
90 | U31G C57U G83C C87A | ≤ -4.2
91 | U31G G42U G58U G59A G86U U104G C131G G136C | ≤ -4.2
92 | C32U A40G C105A | -3.89
93 | C32A C51A C54A G92A A97U U146C | ≤ -4.2
94 | U31G A40C G42A G50A C54U C72U G94U | ≤ -4.2
95 | C32U C125U | -2.22
96 | U33G G83C | -3.6

Row | Variant | polymerase ribozyme fitness (log ratio)
97 | C32G G65C A73G C76U A106G | ≤ -4.2
98 | C32G C85G U90G C118A G133U G140C C149G | ≤ -4.2
99 | U33G A37U A60C C75U G94U C108U | ≤ -4.2
100 | U33C G42A G81A A89G A119C C132U | ≤ -4.2
101 | U33C C69U | -0.0558
102 | U31G C93G G133U U134C | ≤ -4.2
103 | U33A G50C A52C C87A C96U C105U U127G U144A | ≤ -4.2
104 | U33A C75A A110U | ≤ -4.2
105 | C32G A52U C99U A106G G124U C131A | ≤ -4.2
106 | C32U | -1.22
107 | C32A | -2.96
108 | C32G | -3.19
109 | C32G A40U C57U U135G | ≤ -4.2
110 | U31C U55A G136U A150G | -1.81
111 | U33G G50A C93G G128A | ≤ -4.2
112 | C32U G59C A60C C63G C93A C99U A115G | ≤ -4.2
113 | U31G C57G G58A A106G U111G G143U U144A | ≤ -4.2
114 | C32G C76U G88C C96A C103U U127G C129A U139A A142U | ≤ -4.2
115 | U31G A40G U61A C87U G112U G141C | ≤ -4.2
116 | U33G C85G G117C | ≤ -4.2
117 | C32G C54A C75U U77A C85U A106G U135C | ≤ -4.2
118 | C32U A39G A40C C54A G94U A142U | ≤ -4.2
119 | U33A G58A C96A G152U | -3.79
120 | C32G A37G G83U C87G A89G G133C | ≤ -4.2

Row | Variant | polymerase ribozyme fitness (log ratio)
121 | U31G C123U | 0.732
122 | C32G A49U G65U C93U C99G A110U A147U | ≤ -4.2
123 | U31G G42C G50C C57A C79G G80C G136C | ≤ -4.2
124 | C32G G94C | -4.18
125 | C32G G94A | -3.8
126 | C32G A49C | ≤ -4.2
127 | C32U A49U | -4.14
128 | C32U A49C | -4.13
129 | C32A G83A G88C C116G G140C | -4.04
130 | C32U C36U G68A G83U | ≤ -4.2
131 | C32A C38A U56A C69U C93A A122C G126U | ≤ -4.2
132 | C32G A49U G74U U77G A89U | ≤ -4.2
133 | U33G C87A A142U | ≤ -4.2
134 | U33G G48A G59A G84A G88A C149U | ≤ -4.2
135 | U33G C95G C116A | -4.15
136 | U33G C43U A60U G88A U109G U135G G143A | -4.09
137 | U33C A60U A73U A122G | -2.54
138 | U33A G80A | -3.68
139 | C32G C79U C96G A142C | -3.79
140 | U31G U145A | 0.652
141 | C32U A40C C85G C103A | ≤ -4.2
142 | C32G C105U | ≤ -4.2
143 | U33C A49C C57U U145A U151A | ≤ -4.2
144 | U33A G46A G59A C103A A115G | -4.12

Row | Variant | polymerase ribozyme fitness (log ratio)
145 | U31G A122U A142C | -1.56
146 | U33A G46U C75A G140C | ≤ -4.2
147 | U33G A41U G46C C54G G62C G70U C96A A120G G124U | ≤ -4.2
148 | U33G A113C | -4.01
149 | U31G A89C C95G C99A | ≤ -4.2
150 | C32G A49C A142U | ≤ -4.2
151 | U31G G50A | -1.51
152 | U31G A37C G126U | -2.65
153 | U31G C35A G42A | ≤ -4.2
154 | C32G U44A G65A C85G | ≤ -4.2
155 | C32G U56A G94A C108U G124C U145A | ≤ -4.2
156 | C32A A39U C79A C85A C129G | ≤ -4.2
157 | C32U C96G A142U | -3.35
158 | U31G G59U C69A U134G G136U | -3.84
159 | C32A G84A | -3.57
160 | C32U G88A U145G | ≤ -4.2
161 | C32U C38U C93G A122G G126C U145A | ≤ -4.2
162 | C32U G50A A52G G58A C87G C118G | ≤ -4.2
163 | U33A A37G C105U A106G | -4.07
164 | C32A G74C G81C G94A A121U | -4.03
165 | U33A C85U U146G A147U A150G | ≤ -4.2
166 | C32A A40C G84A | ≤ -4.2
167 | U33G G42C G88U G124U C125G | -3.86
